The supplement of paper PMC10126150
± gives the standard deviation of the averaged measurements.

Tested on: ATP
Assay: switch fluorescence ratio, 500 uM ATP over buffer (Cy3 cluster intensity, sum of 5 cycles each) (fold (ratio)); higher = stronger signal-on switching upon ATP binding; sequences stand for … in TCGTCGGCAGCGTCAGATGTGTATAAGAGACAGTTTTTTTTTTTTTTTTTTTTTTTTT…TC
Conditions: aptamer strand: ATP DNA aptamer (quencher-CACCTGGGGGAGTATTGCGGAGGAAGG + anchor), 100 nM annealed; ATP concentration: 500 uM
Method in brief: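 Exposure to 500 uM ATP lasted 15 min at 22 °C before imaging, and a selection-buffer image was taken beforehand, for Cy3-labelled switching-strand clusters on a modified Illumina MiSeq flow-cell annealed to 100 nM quencher-labelled ATP aptamer. Five buffer/ATP cycles were run with NaOH stripping and re-annealing between them. The fluorescence ratio per cluster is summed target-cycle over summed buffer-cycle Cy3 intensity, averaged per switch-domain sequence. Clusters outside 100-1000 RFU were excluded.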

Row | Sequence | switch fluorescence ratio
1 | GAAGCAGATG | 1.16 ± 0.033
2 | TCATCACCGT | 1.01 ± 0.021
3 | GGGTTGCTTA | 0.99 ± 0.023
4 | TTGGTATGGG | 1.03 ± 0.044
5 | TCCACGGATG | 1.04 ± 0.047
6 | AGTTGATCCA | 0.982 ± 0.015
7 | GGGGCGCCTC | 0.992 ± 0.03
8 | GTCGGTACTT | 0.996 ± 0.012
9 | TAAGAGGGTA | 0.974 ± 0.06
10 | TGGTCCAGG | 1.15 ± 0.14
11 | CGATGGTAAG | 0.972 ± 0.011
12 | TTATTTTTGT | 1.01 ± 0.026
13 | CACTGGGGGT | 1.03 ± 0.019
14 | GCTAGGGGTG | 1.07 ± 0.055
15 | GATATTGTGG | 0.987 ± 0.025
16 | AGGTGGCTAG | 1.026 ± 0.0052
17 | GCGGGACCCG | 1.01 ± 0.016
18 | TTTCGTAGAG | 1 ± 0.011
19 | GAGTCGGCGC | 0.983 ± 0.1
20 | GTGCCCCAAG | 1 ± 0.015
21 | AAAAAGTTGT | 1 ± 0.028
22 | ACATTCCTGT | 1.05 ± 0.046
23 | TCATCAATAT | 1.09 ± 0.067

Row | Sequence | switch fluorescence ratio
24 | CGTGAGAAGT | 0.9923 ± 0.0041
25 | TGGGTACGTC | 0.998 ± 0.026
26 | TAAACTACAT | 1.006 ± 0.005
27 | TTATTTTCGT | 0.973 ± 0.018
28 | TCGGGAAATT | 1.012 ± 0.0019
29 | ACCCCGGTAA | 1.87 ± 1.2
30 | GGGTTTATCT | 0.986 ± 0.039
31 | ATTGCCGGAG | 0.999 ± 0.037
32 | TATACCTAGG | 1.003 ± 0.0065
33 | GTTAAGGATG | 1.012 ± 0.0071
34 | GGTGTTACGT | 0.971 ± 0.017
35 | GCTTAATTAG | 1.02 ± 0.017
36 | TATATTACCC | 1.05 ± 0.065
37 | GTTATAAAGT | 0.99 ± 0.024
38 | GTTGAACTTT | 1.02 ± 0.046
39 | GCGTAAGGTG | 1.1 ± 0.084
40 | TTTTTATTGA | 1 ± 0.034
41 | ACAGGATACA | 1.14 ± 0.078
42 | TAGACGGGCT | 0.9797 ± 0.0025
43 | AATTCCCTTT | 0.9946 ± 0.0012
44 | CAGGGGTTGT | 1.21 ± 0.31
45 | TAATGGGGTT | 1 ± 0.024
46 | ACATCTATTC | 1.01 ± 0.034

Row | Sequence | switch fluorescence ratio
47 | GCAGTCACAG | 1.03 ± 0.029
48 | GAGGGAATCG | 0.9635 ± 0.001
49 | TTGTCGTATC | 1 ± 0.019
50 | CAGTTTAATG | 1.014 ± 0.0015
51 | TGTTCGGCGG | 1.02 ± 0.036
52 | CCTGGGGGAG | 1.05 ± 0.11
53 | GTTCGGGGCT | 0.999 ± 0.029
54 | AGGTGAAGTT | 1.02 ± 0.062
55 | CCGCTTTGTT | 1.24 ± 0.072
56 | GCTCTATCAC | 1.04 ± 0.035
57 | GAAAAAAAAA | 0.992 ± 0.023
58 | CATAGGGGTA | 1.01 ± 0.04
59 | TACTTAGTGC | 1.02 ± 0.045
60 | ATGGGCACGT | 0.983 ± 0.019
61 | GTAATAAAAT | 0.971 ± 0.034
62 | ACTCGGGTAG | 1.028 ± 0.0056
63 | TAAAGGGTTG | 1.02 ± 0.065
64 | TTTGGACCGA | 1.03 ± 0.016
65 | TTTGGACGCT | 1.04 ± 0.038
66 | GGGGCAGGGA | 0.98 ± 0.052
67 | GGTTAAACAA | 1.01 ± 0.016
68 | ATTTGTTGCG | 0.999 ± 0.017
69 | ACAGTTGGGT | 1.002 ± 0.0047

Row | Sequence | switch fluorescence ratio
70 | CAATGGGACC | 1.011 ± 0.0013
71 | GGGTGTGGTA | 0.9967 ± 0.0096
72 | ATATTTACCG | 1.04 ± 0.011
73 | TTGTGGGATA | 1.01 ± 0.011
74 | TAATTGGGTC | 1.024 ± 0.0024
75 | GTGGCAACGC | 0.98 ± 0.021
76 | TTCGGGACCC | 1.08 ± 0.1
77 | GGGGTTAAGT | 0.98 ± 0.014
78 | GGTGGTGAGC | 1 ± 0.026
79 | GAGGAAATTG | 0.963 ± 0.054
80 | AAGTAGGAGT | 0.994 ± 0.034
81 | GATCGAAGGG | 0.9849 ± 0.0079
82 | GAATGGGACA | 1.13 ± 0.26
83 | AGGGGCTATG | 1.01 ± 0.032
84 | TATGGGGTGT | 1.01 ± 0.033
85 | GCGTAGAATC | 1.02 ± 0.018
86 | TTATATTCGC | 1.02 ± 0.084
87 | ATGTTAACG | 0.999 ± 0.043
88 | TGATGTCCGT | 0.997 ± 0.02
89 | AATAAGTATT | 1.024 ± 0.003
90 | TGTTTGCGAA | 1.01 ± 0.045
91 | CAGAGGCGTG | 0.9831 ± 0.0079
92 | TCCGTTAAGA | 1.083 ± 0.0019

Row | Sequence | switch fluorescence ratio
93 | CATCCACGTA | 1.2 ± 0.083
94 | AACTAGGGGA | 1.11 ± 0.13
95 | TGCATTAGGA | 1.02 ± 0.024
96 | CCGGGAGGTA | 0.991 ± 0.021
97 | TGATTTAGAG | 0.998 ± 0.013
98 | TCATTTTGTT | 1 ± 0.028
99 | TTTTGAAAGG | 0.976 ± 0.01
100 | TTAACGGGAG | 0.99 ± 0.019
101 | TCGGTGCCTG | 1.01 ± 0.36
102 | TGAAAGTTTT | 0.971 ± 0.025
103 | TTGCACTGAC | 1.53 ± 0.21
104 | GTAGGAGCCG | 0.9987 ± 0.0097
105 | CCTTATAATT | 1.02 ± 0.035
106 | GTGTTTACTG | 1.01 ± 0.054
107 | TTTGAAGTGT | 0.997 ± 0.02
108 | AGTCCCCCTA | 1.08 ± 0.069
109 | AATGTTAGGA | 0.974 ± 0.017
110 | TGGTCGGGGC | 0.974 ± 0.025
111 | CGGGAGCGTC | 1.02 ± 0.01
112 | TGATCAGGAG | 0.9853 ± 0.0053
113 | TTCCGAAAGA | 1.11 ± 0.066
114 | GCGATGGGGC | 1.04 ± 0.039
115 | GGTCTTCTTT | 0.994 ± 0.029

Row | Sequence | switch fluorescence ratio
116 | ATAAAAACCG | 1.01 ± 0.053
117 | TGATTACAGT | 1 ± 0.018
118 | TAGGGCGCGT | 0.9947 ± 0.0094
119 | GTCATAGTGT | 0.955 ± 0.037
120 | GGGGGTCGGG | 1 ± 0.036
121 | CGAAATTACG | 1.04 ± 0.021
122 | GATTATTCGT | 0.99 ± 0.028
123 | GCTCCCTGAG | 1.056 ± 0.0076
124 | CAGGGAGCAG | 1.05 ± 0.03
125 | CGTTAAACTT | 1.01 ± 0.012
126 | GGGTTGTCTG | 0.961 ± 0.063
127 | CATGCCATCC | 1.16 ± 0.051
128 | TAATATTGTT | 1.007 ± 0.0095
129 | TGGCCATCCT | 1.62 ± 0.82
130 | CAATGTGGAG | 0.992 ± 0.055
131 | GGGTTACTGT | 0.985 ± 0.012
132 | TCTAAAGTGT | 0.983 ± 0.0088
133 | TAATTGTAAG | 0.979 ± 0.017
134 | TGGGTGAAGG | 0.999 ± 0.022
135 | TTGGGACAAT | 1.04 ± 0.044
136 | GCAGGGATTG | 0.9734 ± 0.0058
137 | ATTTTGTGTT | 0.988 ± 0.022
138 | TCGGGTCGTA | 1.02 ± 0.019

Row | Sequence | switch fluorescence ratio
139 | CACGGACAGC | 1.41 ± 0.025
140 | GATTGTTTTG | 1.01 ± 0.034
141 | GATATTTTTG | 1 ± 0.024
142 | AGGCATGATG | 1.0051 ± 0.00033
143 | GTGGGAGATA | 1.01 ± 0.038
144 | CAGATTTCTA | 1.02 ± 0.019
145 | TTAGAGGCTG | 0.912 ± 0.15
146 | TAGAGGGGGT | 0.998 ± 0.039
147 | TTTTAGTCTT | 1.04 ± 0.078
148 | TTAGCCAGCT | 0.96986 ± 0.00044
149 | AGTGGCCGTC | 0.974 ± 0.051
150 | TGGTGGTGGG | 1.02 ± 0.018
151 | AGGGGGGCAG | 0.987 ± 0.032
152 | TGCTCTTTTT | 1 ± 0.019
153 | AGGGACGCGA | 1.26 ± 0.037
154 | TATTTGCACG | 1.07 ± 0.062
155 | TAGGAAAAAT | 1.09 ± 0.19
156 | TTTAAAGAAT | 1.04 ± 0.079
157 | CGCGGTTTGT | 0.988 ± 0.017
